Measured values published in US20120039802A1 (published 2012).

B1: 333-F09 peptide-displaying phage (SEQ ID NO: 050) (peptide)
peptide: AGQFKCAGPPSFACWMTGT
B2: 571-C05 peptide-displaying phage (SEQ ID NO: 001) (peptide)
peptide: GSWIICWWDNCGSSAP
B3: 336-G04 peptide-displaying phage (SEQ ID NO: 051) (peptide)
peptide: AGWFQCKGPPSFECERHGT
B4: 334-G06 peptide-displaying phage (SEQ ID NO: 052) (peptide)
peptide: AGWTHCIGPPTFECIPMGT
B5: 330-B07 peptide-displaying phage (SEQ ID NO: 053) (peptide)
peptide: AGSFACKGPPTFACVEFGT
B6: 330-C10 peptide-displaying phage (SEQ ID NO: 054) (peptide)
peptide: AGNYFCAGSPSFSCYFMGT
B7: 331-G04 peptide-displaying phage (SEQ ID NO: 055) (peptide)
peptide: AGSWHCAGPPSFECWEFGT
B8: 452-F01 peptide-displaying phage (SEQ ID NO: 006) (peptide)
peptide: GSEYSCRTSRCIFSAP
B9: 548-F06 peptide-displaying phage (SEQ ID NO: 056) (peptide)
peptide: AGWISCAGPPTFACWPGGT
B10: 538-F08 peptide-displaying phage (SEQ ID NO: 057) (peptide)
peptide: AGFVNCKGPPTFECILTGT
B11: 547-H07 peptide-displaying phage (SEQ ID NO: 058) (peptide)
peptide: AGDWICHGPPMFECEWVGT
B12: 323-A11 peptide-displaying phage (SEQ ID NO: 059) (peptide)
peptide: AGYTSCVGPPSFECTPYGT
B13: 333-H03 peptide-displaying phage (SEQ ID NO: 060) (peptide)
peptide: AGYFECKGPPTFECWLSGT
B14: 329-D02 peptide-displaying phage (SEQ ID NO: 061) (peptide)
peptide: AGHAWCSGPPRFECWPPGT
B15: 550-C09 peptide-displaying phage (SEQ ID NO: 062) (peptide)
peptide: AGHYWCAGPPTFICMGPGT
B16: 548-E08 peptide-displaying phage (SEQ ID NO: 063) (peptide)
peptide: AGETTCLGWPTFVCVDYGT
B17: 332-A05 peptide-displaying phage (SEQ ID NO: 064) (peptide)
peptide: AGHGTCRGWPTFECIYFGT
B18: 330-C01 peptide-displaying phage (SEQ ID NO: 065) (peptide)
peptide: AGDWHCQGPPAFMCWMIGT
B19: 569-C03 peptide-displaying phage (SEQ ID NO: 007) (peptide)
peptide: GSFILCWWTFCDTNAP
B20: 545-A09 peptide-displaying phage (SEQ ID NO: 066) (peptide)
peptide: AGLPKCSGPPWFSCYYGGT
B21: 334-C08 peptide-displaying phage (SEQ ID NO: 067) (peptide)
peptide: AGGWECTGPPWFQCGYYGT
B22: 333-C05 peptide-displaying phage (SEQ ID NO: 068) (peptide)
peptide: AGDIVCTGHPYFECWSWGT
B23: 551-B02 peptide-displaying phage (SEQ ID NO: 069) (peptide)
peptide: AGTWHCAGPPWFTCYMDGT
B24: 551-G12 peptide-displaying phage (SEQ ID NO: 070) (peptide)
peptide: AGSWECTGPPSFHCQWYGT
B25: 330-G09 peptide-displaying phage (SEQ ID NO: 071) (peptide)
peptide: AGHWICVGPPTFSCQWHGT
B26: 331-F01 peptide-displaying phage (SEQ ID NO: 072) (peptide)
peptide: AGEWWCHGPPEFLCYWTGT
B27: 335-D11 peptide-displaying phage (SEQ ID NO: 074) (peptide)
peptide: AGSIQCVGPPSFECTPYGT
B28: 336-D07 peptide-displaying phage (SEQ ID NO: 075) (peptide)
peptide: AGYSVCKGYPSFECAFFGT
B29: 574-H03 peptide-displaying phage (SEQ ID NO: 008) (peptide)
peptide: GSSTICPGTACVDHAP
B30: 332-C03 peptide-displaying phage (SEQ ID NO: 076) (peptide)
peptide: AGVNSCLGPPTFECYQMGT
B31: 331-D03 peptide-displaying phage (SEQ ID NO: 077) (peptide)
peptide: AGYWHCKGPPHFACEFHGT

These binders were tested against T1, cMet-Fc fusion protein (extracellular domain of the cMet receptor expressed as an Fc-fusion protein) (human, UniProt P08581 25-932) (assay: phage ELISA, cMet-Fc vs TRAIL-Fc).
T1 construct: extracellular domain; also called soluble cMet-Fc-fusion protein; soluble cMet receptor; not shown: Fc part
Method: Protein phage ELISAs using peptide-displaying phage isolates from the various selection campaigns were performed to determine specificity of the peptides for cMet versus an unrelated Fc-fusion protein (TRAIL-Fe). Briefly, 384-well plates were coated overnight at 4 C with 0.5 μg/mL of cMet-Fc fusion protein or TRAIL-Fc fusion protein (background). The plates were blocked for 2 hours 37 C with 3% (w/v) BSA in PBS containing 0.05% (v/v) Tween-20 (PBST). The plates were washed with PBST and 100 μL of peptide-displaying phage were added to each well. The plates were incubated for 2 hours at room temperature and washed with PBST. cMet-binding peptide-displaying phage were detected using an HRP-conjugated anti-M13 antibody.

T1 sequence (P08581 25-932): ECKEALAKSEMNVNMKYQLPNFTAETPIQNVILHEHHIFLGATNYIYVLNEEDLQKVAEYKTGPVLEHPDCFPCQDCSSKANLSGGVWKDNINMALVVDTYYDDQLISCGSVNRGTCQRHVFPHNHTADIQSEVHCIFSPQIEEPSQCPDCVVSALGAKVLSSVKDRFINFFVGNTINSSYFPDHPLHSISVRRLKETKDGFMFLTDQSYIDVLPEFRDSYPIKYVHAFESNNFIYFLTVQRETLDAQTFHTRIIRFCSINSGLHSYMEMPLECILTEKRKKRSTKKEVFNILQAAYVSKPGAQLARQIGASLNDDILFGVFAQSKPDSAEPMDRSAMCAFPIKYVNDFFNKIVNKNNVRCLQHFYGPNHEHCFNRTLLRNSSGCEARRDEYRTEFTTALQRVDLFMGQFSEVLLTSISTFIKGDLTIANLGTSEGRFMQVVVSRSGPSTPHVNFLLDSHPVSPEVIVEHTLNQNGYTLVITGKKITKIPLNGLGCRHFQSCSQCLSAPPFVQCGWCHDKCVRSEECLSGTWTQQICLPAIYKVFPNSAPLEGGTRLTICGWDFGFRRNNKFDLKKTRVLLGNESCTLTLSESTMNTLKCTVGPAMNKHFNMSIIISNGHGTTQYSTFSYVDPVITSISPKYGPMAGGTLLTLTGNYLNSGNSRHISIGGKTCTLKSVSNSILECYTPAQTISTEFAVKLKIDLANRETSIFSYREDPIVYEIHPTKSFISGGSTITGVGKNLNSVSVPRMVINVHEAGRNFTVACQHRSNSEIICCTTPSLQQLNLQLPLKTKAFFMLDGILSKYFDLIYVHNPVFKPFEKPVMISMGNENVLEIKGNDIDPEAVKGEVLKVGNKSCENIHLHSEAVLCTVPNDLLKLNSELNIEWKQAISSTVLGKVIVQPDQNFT

Binder	Protein ELISA (fold over background) [fold]
B1	14.8
B2	4.9
B3	5.4
B4	8
B5	18.1
B6	13.4
B7	18.3
B8	3.2
B9	14.3
B10	12.3
B11	15.9
B12	21.2
B13	8.1
B14	3.2
B15	10.2
B16	5.3

Binder	Protein ELISA (fold over background) [fold]
B17	6
B18	4.7
B19	3.4
B20	13.5
B21	8
B22	6.3
B23	9
B24	3.9
B25	13.5
B26	12.6
B27	6.7
B28	5.8
B29	3.2
B30	5.7
B31	5.5

The binders below were run against T2, human cMet expressed on 3T3 cells (human, UniProt P08581 25-1390) (assay: whole cell phage ELISA, 3T3 human cMet vs 3T3).
T2 construct: whole, on cells; cells fixed with glutaraldehyde; also called cell surface-expressed human cMet; 3T3 cells that over-express human cMet
Method: Whole cell ELISAs were performed using 3T3 cells that over-express human cMet. […] Briefly, 96-well plates were seeded with 10⁵ cells per well. The plates were centrifuged for 5 minutes at 1600 rpm to pellet the cells. The resulting cell layer was fixed with 0.1% (v/v) glutaraldehyde for 12 minutes at 37 C. […] Peptide-displaying phage also were blocked in the above solution for 1 hour at 37 C. 100 μL of blocked phage was then added to each well and the plates were incubated for 1 hour at room temperature. The plates were washed with PBST. cMet-binding peptide-displaying phage were detected using an HRP-conjugated anti-M13 antibody.

T2 sequence (P08581 25-1390): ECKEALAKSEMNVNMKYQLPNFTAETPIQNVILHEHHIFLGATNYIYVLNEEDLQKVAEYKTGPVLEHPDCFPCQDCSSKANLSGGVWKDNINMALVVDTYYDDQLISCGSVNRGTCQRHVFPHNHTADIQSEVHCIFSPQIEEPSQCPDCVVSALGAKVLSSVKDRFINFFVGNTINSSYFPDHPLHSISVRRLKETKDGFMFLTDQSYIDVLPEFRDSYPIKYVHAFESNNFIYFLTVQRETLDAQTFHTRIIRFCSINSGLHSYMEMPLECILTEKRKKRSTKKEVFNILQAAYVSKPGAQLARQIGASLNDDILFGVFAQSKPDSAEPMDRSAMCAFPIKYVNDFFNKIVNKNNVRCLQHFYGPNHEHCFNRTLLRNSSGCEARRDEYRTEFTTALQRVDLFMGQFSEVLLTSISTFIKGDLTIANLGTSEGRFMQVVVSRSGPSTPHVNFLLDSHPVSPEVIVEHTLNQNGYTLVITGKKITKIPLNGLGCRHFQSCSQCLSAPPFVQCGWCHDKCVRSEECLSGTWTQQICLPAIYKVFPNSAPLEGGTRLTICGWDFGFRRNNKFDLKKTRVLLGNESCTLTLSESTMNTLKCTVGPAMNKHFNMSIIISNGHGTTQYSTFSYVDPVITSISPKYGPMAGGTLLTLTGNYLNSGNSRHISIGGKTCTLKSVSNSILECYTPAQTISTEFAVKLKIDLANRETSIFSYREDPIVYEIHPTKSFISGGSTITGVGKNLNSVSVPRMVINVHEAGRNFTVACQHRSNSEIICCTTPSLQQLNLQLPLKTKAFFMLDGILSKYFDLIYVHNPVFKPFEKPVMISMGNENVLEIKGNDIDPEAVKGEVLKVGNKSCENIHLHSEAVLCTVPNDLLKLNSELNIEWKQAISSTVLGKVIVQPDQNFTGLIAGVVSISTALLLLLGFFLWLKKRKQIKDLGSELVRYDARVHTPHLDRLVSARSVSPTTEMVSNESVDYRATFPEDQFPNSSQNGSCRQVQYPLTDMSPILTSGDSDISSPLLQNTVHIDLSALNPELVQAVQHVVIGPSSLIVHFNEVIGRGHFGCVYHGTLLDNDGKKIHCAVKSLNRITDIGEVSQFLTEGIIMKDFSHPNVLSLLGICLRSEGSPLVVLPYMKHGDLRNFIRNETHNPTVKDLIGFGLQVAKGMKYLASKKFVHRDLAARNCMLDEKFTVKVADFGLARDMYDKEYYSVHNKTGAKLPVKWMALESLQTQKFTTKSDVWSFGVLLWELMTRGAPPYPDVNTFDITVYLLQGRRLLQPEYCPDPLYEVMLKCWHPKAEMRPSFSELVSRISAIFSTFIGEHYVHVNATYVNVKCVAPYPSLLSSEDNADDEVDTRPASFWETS

Binder	WC ELISA (fold over background) [fold]
B1	1.43
B2	1.3
B3	1.33
B4	1.3
B5	1.27
B6	1.33
B7	1.47
B8	1.33
B9	1.23
B10	1.23
B11	1.17
B12	1.43
B13	1.43
B14	1.27
B15	1.4
B16	1.27

Binder	WC ELISA (fold over background) [fold]
B17	1.4
B18	1.3
B19	1.3
B20	1.3
B21	1.47
B22	1.33
B23	1.3
B24	1.37
B25	1.4
B26	1.47
B27	1.37
B28	1.33
B29	1.27
B30	1.2
B31	1.4

What follows are binders tested against T1, cMet-Fc fusion protein (extracellular …) (assay: phage ELISA on cMet-Fc, competitor HGF 100 ng/mL).
Method: (§1) These assays were conducted using the peptide-displaying phage discovered from the initial selection and screening campaigns using the first generation peptide libraries. Briefly, 96-well plates were coated overnight at 4 C with 0.5 μg/mL of cMet-Fc fusion protein or TRAIL-Fc fusion protein (background). The plates were blocked for 2 hours at 37 C with 3% BSA in PBST. […] This was followed by an addition of 30 μL of peptide-displaying phage overnight culture to each well. The plates were incubated for 2 hours at room temperature, washed with PBST and cMet-binding peptide-displaying phage was detected using an HRP-conjugated anti-M13 antibody.

Binder	% of binding in the absence of HGF [%]
B1	52
B2	102
B3	46
B4	56
B5	58
B6	48
B7	56
B8	117
B9	76
B10	55
B11	60
B12	41
B13	55
B14	53
B15	25
B16	102

Binder	% of binding in the absence of HGF [%]
B17	40
B18	58
B19	95
B20	44
B21	70
B22	83
B23	69
B24	88
B25	42
B26	77
B27	56
B28	44
B29	88
B30	37
B31	64

The binders below were run against T1, cMet-Fc fusion protein (extracellular …) (assay: phage ELISA on cMet-Fc, competitor HGF 500 ng/mL).
Method: as §1

Binder	% of binding in the absence of HGF [%]
B1	32
B2	74
B3	23
B4	43
B5	40
B6	25
B7	36
B8	110
B9	18
B10	43
B11	45
B12	18
B13	37
B14	31
B15	25
B16	50

Binder	% of binding in the absence of HGF [%]
B17	21
B18	43
B19	89
B20	22
B21	57
B22	66
B23	43
B24	46
B25	26
B26	73
B27	37
B28	37
B29	18
B30	95
B31	55
